Assay results from patent US20170073690A1 (CEMM FORSCHUNGZENTRUM FUER MOLEKULARE MEDIZIN, published 2017).

B1: full length SLC38A9 with motif 38RPF40 mutated to alanine (other)
chain: MANMNSDSRHLGTSEVDHERDPGPMNIQFEPSDLRSKAAACIEPTNIVNVNHVIQRVSDHASAMNKRIHYYSRLTTPADKALIAPDHVVPAPEECYVYSPLGSAYKLQSYTEGYGKNTSLVTIFMIWNTMMGTSILSIPWGIKQAGFTTGMCVIILMGLLTLYCCYRVVKSRTMMFSLDTTSWEYPDVCRHYFGSFGQWSSLLFSLVSLIGAMIVYWVLMSNFLFNTGKFIFNFIHHINDTDTILSTNNSNPVICPSAGSGGHPDNSSMIFYANDTGAQQFEKWWDKSRTVPFYLVGLLLPLLNFKSPSFFSKFNILGTVSVLYLIFLVTFKAVRLGFHLEFHWFIPTEFFVPEIRFQFPQLTGVLTLAFFIHNCIITLLKNNKKQENNVRDLCIAYMLVTLTYLYIGVLVFASFPSPPLSKDCIEQNFLDNFPSSDTLSFIARIFLLFQMMTVYPLLGYLARVQLLGHIFGDIYPSIFHVLILNLIIVGAGVIMACFYPNIGGIIRYSGAACGLAFVFIYPSLIYIISLHQEERLTWPKLIFHVFIIILGVANLIVQFFM
notes: also called 38RPF40 mutant (full length); not shown: N-terminal HA-containing tag
B2: full length SLC38A9 with motif 70YYSR73 mutated to alanine (other)
chain: MANMNSDSRHLGTSEVDHERDPGPMNIQFEPSDLRSKRPFCIEPTNIVNVNHVIQRVSDHASAMNKRIHAAAALTTPADKALIAPDHVVPAPEECYVYSPLGSAYKLQSYTEGYGKNTSLVTIFMIWNTMMGTSILSIPWGIKQAGFTTGMCVIILMGLLTLYCCYRVVKSRTMMFSLDTTSWEYPDVCRHYFGSFGQWSSLLFSLVSLIGAMIVYWVLMSNFLFNTGKFIFNFIHHINDTDTILSTNNSNPVICPSAGSGGHPDNSSMIFYANDTGAQQFEKWWDKSRTVPFYLVGLLLPLLNFKSPSFFSKFNILGTVSVLYLIFLVTFKAVRLGFHLEFHWFIPTEFFVPEIRFQFPQLTGVLTLAFFIHNCIITLLKNNKKQENNVRDLCIAYMLVTLTYLYIGVLVFASFPSPPLSKDCIEQNFLDNFPSSDTLSFIARIFLLFQMMTVYPLLGYLARVQLLGHIFGDIYPSIFHVLILNLIIVGAGVIMACFYPNIGGIIRYSGAACGLAFVFIYPSLIYIISLHQEERLTWPKLIFHVFIIILGVANLIVQFFM
notes: also called 70YYSR73 mutant (full length); not shown: N-terminal HA-containing tag
B3: full length SLC38A9 with motif 85PDH87 mutated to alanine (other)
chain: MANMNSDSRHLGTSEVDHERDPGPMNIQFEPSDLRSKRPFCIEPTNIVNVNHVIQRVSDHASAMNKRIHYYSRLTTPADKALIAAAAVVPAPEECYVYSPLGSAYKLQSYTEGYGKNTSLVTIFMIWNTMMGTSILSIPWGIKQAGFTTGMCVIILMGLLTLYCCYRVVKSRTMMFSLDTTSWEYPDVCRHYFGSFGQWSSLLFSLVSLIGAMIVYWVLMSNFLFNTGKFIFNFIHHINDTDTILSTNNSNPVICPSAGSGGHPDNSSMIFYANDTGAQQFEKWWDKSRTVPFYLVGLLLPLLNFKSPSFFSKFNILGTVSVLYLIFLVTFKAVRLGFHLEFHWFIPTEFFVPEIRFQFPQLTGVLTLAFFIHNCIITLLKNNKKQENNVRDLCIAYMLVTLTYLYIGVLVFASFPSPPLSKDCIEQNFLDNFPSSDTLSFIARIFLLFQMMTVYPLLGYLARVQLLGHIFGDIYPSIFHVLILNLIIVGAGVIMACFYPNIGGIIRYSGAACGLAFVFIYPSLIYIISLHQEERLTWPKLIFHVFIIILGVANLIVQFFM
notes: also called 85PDH87 mutant (full length); not shown: N-terminal HA-containing tag
B4: SLC38A1 (other)
chain: MMHFKSGLELTELQNMTVPEDDNISNDSNDFTEVENGQINSKFISDRESRRSLTNSHLEKKKCDEYIPGTTSLGMSVFNLSNAIMGSGILGLAFALANTGILLFLVLLTSVTLLSIYSINLLLICSKETGCMVYEKLGEQVFGTTGKFVIFGATSLQNTGAMLSYLFIVKNELPSAIKFLMGKEETFSAWYVDGRVLVVIVTFGIILPLCLLKNLGYLGYTSGFSLSCMVFFLIVVIYKKFQIPCIVPELNSTISANSTNADTCTPKYVTFNSKTVYALPTIAFAFVCHPSVLPIYSELKDRSQKKMQMVSNISFFAMFVMYFLTAIFGYLTFYDNVQSDLLHKYQSKDDILILTVRLAVIVAVILTVPVLFFTVRSSLFELAKKTKFNLCRHTVVTCILLVVINLLVIFIPSMKDIFGVVGVTSANMLIFILPSSLYLKITDQDGDKGTQRIWAALFLGLGVLFSLVSIPLVIYDWACSSSSDEGH
notes: N-terminally SII-HA tagged bait
B5: SLC38A9 N-terminal cytoplasmic tail deletion construct (amino acids 1-111, or amino acids 1-112) (other)
chain: MANMNSDSRHLGTSEVDHERDPGPMNIQFEPSDLRSKRPFCIEPTNIVNVNHVIQRVSDHASAMNKRIHYYSRLTTPADKALIAPDHVVPAPEECYVYSPLGSAYKLQSYTE
notes: also called cytoplasmic region of SLC38A9; not shown: N-terminal HA-containing tag (Strep-HA, vector pTO-SII-HA-GW)
B6: SLC38A9 cytoplasmic region with motif 70YYSR73 mutated to alanine (other)
chain: MANMNSDSRHLGTSEVDHERDPGPMNIQFEPSDLRSKRPFCIEPTNIVNVNHVIQRVSDHASAMNKRIHAAAALTTPADKALIAPDHVVPAPEECYVYSPLGSAYKLQSYTE
notes: also called 70YYSR73 mutant (cytoplasmic region); not shown: N-terminal HA-containing tag
B7: SLC38A9 cytoplasmic region with motif 38RPF40 mutated to alanine (other)
chain: MANMNSDSRHLGTSEVDHERDPGPMNIQFEPSDLRSKAAACIEPTNIVNVNHVIQRVSDHASAMNKRIHYYSRLTTPADKALIAPDHVVPAPEECYVYSPLGSAYKLQSYTE
notes: also called 38RPF40 mutant (cytoplasmic region); not shown: N-terminal HA-containing tag
B8: SLC38A9 cytoplasmic region with motif 85PDH87 mutated to alanine (other)
chain: MANMNSDSRHLGTSEVDHERDPGPMNIQFEPSDLRSKRPFCIEPTNIVNVNHVIQRVSDHASAMNKRIHYYSRLTTPADKALIAAAAVVPAPEECYVYSPLGSAYKLQSYTE
notes: also called 85PDH87 mutant (cytoplasmic region); not shown: N-terminal HA-containing tag

Legend:
LAMTOR1 [1] = molecular target: T1, LAMTOR1 (human, UniProt Q6IAA8 2-161); assay: anti-HA co-IP of tagged full length point mutant from HEK293T, immunoblot (FIG. 9C)
T1 construct: Endogenous in HEK293/HEK293T cells, or C-terminally tagged (V5 or SII-HA) when used as bait

LAMTOR3 [2] = molecular target: T2, LAMTOR3 (human, UniProt Q9UHA4 1-124, limits assumed); assay: as above
T2 construct: also called SII-HA-LAMTOR 3

RAGA [3] = molecular target: T3, RAGA (human, UniProt Q7L523 1-313); assay: as above
T3 construct: Endogenous, or N-terminally tagged as bait; RAG GTPases act as heterodimers of RAGA/B with RAGC/D; also called RAG GTPase A

RAGC [4] = molecular target: T4, RAGC (human, UniProt Q9HB90 1-399); assay: as above
T4 construct: Endogenous, or N-terminally tagged as bait; also called RAG GTPase C

LAMTOR5 = LAMTOR5 (human, UniProt O43504 1-91); assay: TAP-LC-MS/MS, SII-HA-tagged bait, HEK293 Flp-In TREx cells
Procedure: (§1) Tandem affinity STREP-HA purifications were performed as previously described³. In brief, cells were stimulated with doxycycline/tetracycline for 24 h to induce expression of SII-HA-tagged bait proteins. Induction of SII-HA-LAMTOR 3 was combined with 9 h starvation in serum free medium. Protein complexes were isolated by TAP using streptavidin agarose followed by elution with biotin, and a second purification step using HA-agarose beads. Proteins were eluted with 100 mM formic acid, neutralized with triethylammonium bicarbonate (TEAB) and digested with trypsin, and the peptides were analysed by LC-MS/MS.

LAMTOR4 = LAMTOR4 (human, UniProt Q0VGL1 1-99); assay: as above
Procedure: as §1

LAMTOR1 [5] = molecular target: T1, LAMTOR1; assay: anti-HA co-IP of tagged deletion construct from HEK293T, immunoblot (FIG. 2D)
Source text: (§2) Proteins filtered using SAINT³⁵ that interacted with at least five bait proteins were retained. Previously published interactors of the Ragulator complex and RAG GTPases that were also detected are highlighted. b, Tabular view of spectral counts (maximum of biological replicate) and sequence coverage (percentage) of the core Ragulator network and published interactors detected. c HEK293T cells were transfected with the indicated constructs or empty vector (−). […] Anti-HA immunoprecipitates and cell extracts were analysed by immunoblot with the indicated antibodies. Deletion constructs are labelled with the number of the encoded amino acids (d) and point mutants with the amino acid motif substituted to alanine (e).
(§3) Cells were transfected with Polyfect (Qiagen) and used for experiments after 24 hours. For lysis, cells were resuspended in Nonidet-40 lysis buffer (1% NP-40, 50 mM Hepes pH7.4, 250 mM NaCl, 5 mM EDTA, Halt phosphatase inhibitor cocktail (ThermoScientific), one tablet of EDTA-free protease inhibitor (Roche) per 50 ml) on ice for 5 min. Lysates were cleared by centrifugation in a microcentrifuge (13000 r.p.m., 10 min, 4 C). Proteins were quantified with BCA (Pierce). […]

RAGA [6] = molecular target: T3, RAGA; assay: as above
Source text: as §2, §3

LAMTOR1 [7] = molecular target: T1, LAMTOR1; assay: anti-HA co-IP of tagged point mutant from HEK293T, immunoblot (FIG. 2E)
Source text: as §2
(§4) Cells were transfected with Polyfect (Qiagen) and used for experiments after 24 hours. For lysis, cells were resuspended in Nonidet-40 lysis buffer (1% NP-40, 50 mM Hepes pH7.4, 250 mM NaCl, 5 mM EDTA, Halt phosphatase inhibitor cocktail (ThermoScientific), one tablet of EDTA-free protease inhibitor (Roche) per 50 ml) on ice for 5 min. Lysates were cleared by centrifugation in a microcentrifuge (13000 r.p.m., 10 min, 4 C). Proteins were quantified with BCA (Pierce). For immunoprecipitations, lysates were precleared on Sepharose6 beads (Sigma) (40 min. with rotation, 4° C.) and then incubated either with HA- or V5-coupled beads (3 h with rotation, 4° C.) or with primary antibody and protein G-sepharose (GE healthcare) (14 h with rotation, 4° C.). Beads were recovered and washed four times with lysis buffer before analysis by SDS-PAGE and immunoblotting.

LAMTOR3 [8] = molecular target: T2, LAMTOR3; assay: as above
Source text: as §2, §4

RAGA [9] = molecular target: T3, RAGA; assay: as above
Source text: as §2, §4

RAGC [10] = molecular target: T4, RAGC; assay: as above
Source text: as §2, §4

T1 sequence (Q6IAA8 2-161 limits assumed): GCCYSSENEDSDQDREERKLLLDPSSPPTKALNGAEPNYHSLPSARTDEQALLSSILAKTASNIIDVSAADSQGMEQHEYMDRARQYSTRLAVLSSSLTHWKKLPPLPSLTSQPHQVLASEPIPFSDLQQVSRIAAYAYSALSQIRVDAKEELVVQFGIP
T4 sequence (Q9HB90 whole entry): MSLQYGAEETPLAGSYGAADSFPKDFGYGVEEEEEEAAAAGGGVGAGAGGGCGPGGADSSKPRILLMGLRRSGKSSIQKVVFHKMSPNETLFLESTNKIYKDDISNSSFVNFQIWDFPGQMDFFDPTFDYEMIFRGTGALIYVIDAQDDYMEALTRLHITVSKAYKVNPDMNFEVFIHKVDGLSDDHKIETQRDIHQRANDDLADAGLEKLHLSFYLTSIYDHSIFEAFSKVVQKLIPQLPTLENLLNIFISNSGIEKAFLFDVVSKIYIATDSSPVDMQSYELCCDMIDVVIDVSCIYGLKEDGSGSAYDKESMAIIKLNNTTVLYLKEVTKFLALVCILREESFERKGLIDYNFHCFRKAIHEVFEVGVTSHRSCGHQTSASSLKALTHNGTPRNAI
T3 sequence (Q7L523 whole entry): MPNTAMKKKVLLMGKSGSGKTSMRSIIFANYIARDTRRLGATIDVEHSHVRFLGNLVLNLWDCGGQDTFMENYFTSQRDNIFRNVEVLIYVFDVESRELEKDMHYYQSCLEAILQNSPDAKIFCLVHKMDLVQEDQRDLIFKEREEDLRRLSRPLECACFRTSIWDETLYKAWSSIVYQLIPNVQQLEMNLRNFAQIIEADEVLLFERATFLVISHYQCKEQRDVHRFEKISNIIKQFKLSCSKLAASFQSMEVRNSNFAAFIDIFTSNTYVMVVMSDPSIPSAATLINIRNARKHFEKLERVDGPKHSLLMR
T2 sequence (Q9UHA4 whole entry): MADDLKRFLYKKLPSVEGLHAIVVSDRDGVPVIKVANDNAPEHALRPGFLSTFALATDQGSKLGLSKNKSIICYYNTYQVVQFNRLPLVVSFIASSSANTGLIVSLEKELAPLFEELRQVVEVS

binding result (LAMTOR1 [1])	binding result (LAMTOR3 [2])	binding result (RAGA [3])	binding result (RAGC [4])	binding result (LAMTOR1 [7])	binding result (LAMTOR3 [8])	binding result (RAGA [9])	binding result (RAGC [10])	other results	Binder
no binding	no binding	no binding	no binding						B1
no binding	no binding	no binding	no binding						B2
no binding	no binding	no binding	no binding						B3
								binding result (LAMTOR5): no binding; binding result (LAMTOR4): no binding	B4
								binding result (LAMTOR1 [5]): binds; binding result (RAGA [6]): binds	B5
				no binding	no binding	no binding	no binding		B6
				no binding	no binding	no binding	no binding		B7
				no binding	no binding	no binding	no binding		B8
